Target: the molecule itself
Assay: velocity AUC in PBS (self-association)

B1: DPP-IV H750E mutant (enzyme, human, UniProt P27487 39-766, looked up)
chain: SRKTYTLTDYLKNTYRLKLYSLRWISDHEYLYKQENNILVFNAEYGNSSVFLENSTFDEFGHSINDYSISPDGQFILLEYNYVKQWRHSYTASYDIYDLNKRQLITEERIPNNTQWVTWSPVGHKLAYVWNNDIYVKIEPNLPSYRITWTGKEDIIYNGITDWVYEEEVFSAYSALWWSPNGTFLAYAQFNDTEVPLIEYSFYSDESLQYPKTVRVPYPKAGAVNPTVKFFVVNTDSLSSVTNATSIQITAPASMLIGDHYLCDVTWATQERISLQWLRRIQNYSVMDICDYDESSGRWNCLVARQHIEMSTTGWVGRFRPSEPHFTLDGNSFYKIISNEEGYRHICYFQIDKKDCTFITKGTWEVIGIEALTSDYLYYISNEYKGMPGGRNLYKIQLSDYTKVTCLSCELNPERCQYYSVSFSKEAKYYQLRCSGPGLPLYTLHSSVNDKGLRVLEDNSALDKMLQNVQMPSKKLDFIILNETKFWYQMILPPHFDKSKKYPLLLDVYAGPCSQKADTVFRLNWATYLASTENIIVASFDGRGSGYQGDKIMHAINRRLGTFEVEDQIEAARQFSKMGFVDNKRIAIWGWSYGGYVTSMVLGSGSGVFKCGIAVAPVSRWEYYDSVYTERYMGLPTPEDNLDHYRNSTVMSRAENFKQVEYLLIHGTADDNVHFQQSAQISKALVDVGVDFQAMWYTDEDHGIASSTAHQEIYTHMSHFIKQCFSLP
notes: range 39-766; Monomeric by AUC
binding result: no binding (tested: 0.1 to 0.2 mg/ml (1.2 uM to 2.3 uM))

Reference: patent US20060024313A1 (published 2006)
